Reference: the supplement of paper PMC7877785
± gives the uncertainty stated by the source.

Assay: self-splicing fitness, log relative to wild type (ln ratio); higher = more splicing; Tetrahymena group I intron in knt gene, E. coli kanamycin selection, DiMSum; sequences stand for … in CUCUCU…GGAGGGAAAAGUUAUCAGGCAUGCACCUGGUAGCUAGUCUUUAAACCAAUAGAUUGCAUCGGUUUAAAAGGCAAGACCGUCAAAUUGCGGGAAAGGGGUCAACAGCCGUUCAGUACCAAGUCUCAGGGGAAACUUUGAGAUGGCCUUGCAAAGGGUAUGGUAAUAAGCUGACGGACAUGGUCCUAACCACGCAGCCAAGUCCUAAGUCAACAGAUCUUCUGUUGAUAUGGAUGCAGUUCACAGACUAAAUGUCGGUCGGGGAAGAUGUAUUCUUCUCAUAAGAUAUAGUCGGACCUCUCCUUAAUGGGAGCUAGCGGAUGAAGUGAUGCAACACUGGAGCCGCUGGGAACUAAUUUGUAUGCGAAAGUAUAUUGAUUAGUUUUGGAGUACUCGUGGUCG
Outline: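 Colonies from six replicate transformations of E. coli BL21(DE3) were pooled and amplicon-sequenced on an Illumina HiSeq 2500. The library placed an intron with all eight P1ex-region nucleotides randomised inside the knt kanamycin-resistance gene on pET-22b(+), and cells grew overnight at 37°C or 30°C on LB agar with or without 25 μg/mL kanamycin (plus 100 μg/mL carbenicillin, 50 μM IPTG, 0.2% rhamnose). Fitness is the DiMSum error-weighted combination of wild-type-normalised replicate fold changes, kanamycin versus none.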

Sequence	self-splicing fitness (ln) (30 °C)	self-splicing fitness (ln) (37 °C)
ACACAGCAAUAUUACGUAUC	-3.71 ± 0.15	-2.8 ± 0.15
CGUUAGCAAUAUUACGGCAA	-2.91 ± 0.2	-1.1 ± 0.15
CAGCAGCAAUAUUACGACGG	-0.183 ± 0.064	0.472 ± 0.1
UAUCAGCAAUAUUACGGCCC	-2.13 ± 0.28	-1.05 ± 0.39
GGGCAGCAAUAUUACGUACA	-0.35 ± 0.084	-0.0196 ± 0.1
AAGGAGCAAUAUUACGCUAC	-2.75 ± 0.43	
CUUUAGCAAUAUUACGAAUC	-1.01 ± 0.45	
UUAAAGCAAUAUUACGGACA	-0.00448 ± 0.072	0.068 ± 0.11
UGCAAGCAAUAUUACGGUUG	-2.49 ± 0.11	-1.88 ± 0.13
ACAGAGCAAUAUUACGAUUU	-3.03 ± 0.14	-1.71 ± 0.13
CACAAGCAAUAUUACGCAUG	-3.79 ± 0.18	-2.52 ± 0.13
AGUCAGCAAUAUUACGGAAU	-1.84 ± 0.084	-0.425 ± 0.077
CCACAGCAAUAUUACGCAAG	-1.34 ± 0.064	-0.406 ± 0.072
GAUUAGCAAUAUUACGCGAA	-3.47 ± 0.29	-1.44 ± 0.21
AAAGAGCAAUAUUACGGGGU	-2.63 ± 0.21	-2.18 ± 0.24
GCCAAGCAAUAUUACGUUCC	-0.712 ± 0.1	-0.674 ± 0.16
CAGAAGCAAUAUUACGUAAA	-4.01 ± 0.31	-1.73 ± 0.16
AAUAAGCAAUAUUACGGGUC	-3.18 ± 0.2	-2.53 ± 0.22
AUCAAGCAAUAUUACGAUUG	-4.34 ± 0.3	-3.41 ± 0.3
ACGAAGCAAUAUUACGAUCG	-0.102 ± 0.073	0.139 ± 0.11

Sequence	self-splicing fitness (ln) (30 °C)	self-splicing fitness (ln) (37 °C)
GACCAGCAAUAUUACGAUCA	-1.38 ± 0.1	-1.1 ± 0.12
GUUCAGCAAUAUUACGUUAG	-1.3 ± 0.077	-0.731 ± 0.11
UUAGAGCAAUAUUACGUGCU		-1.79 ± 0.4
AAUGAGCAAUAUUACGUACC		-2.85 ± 0.27
AGCAAGCAAUAUUACGCCGA	-0.81 ± 0.15	-0.63 ± 0.17
CCCUAGCAAUAUUACGGGCC	-3.25 ± 0.19	-1.74 ± 0.27
UCAAAGCAAUAUUACGGCUG	-0.827 ± 0.056	0.231 ± 0.078
UAGCAGCAAUAUUACGCGAA	-1.54 ± 0.091	-1.24 ± 0.12
AGAUAGCAAUAUUACGUUCU	-2.38 ± 0.14	-2.02 ± 0.17
AUUCAGCAAUAUUACGUUUU	-2.06 ± 0.09	-0.724 ± 0.091
UAUUAGCAAUAUUACGUGAU	-2.82 ± 0.17	-1.99 ± 0.18
CUCUAGCAAUAUUACGCGUU		-2.14 ± 0.18
GUUAAGCAAUAUUACGACUG	-2.57 ± 0.2	-2.53 ± 0.4
AGACAGCAAUAUUACGAAGA	-3.75 ± 0.33	-2.41 ± 0.34
CCGUAGCAAUAUUACGCAUG	-0.123 ± 0.14	-1.09 ± 0.13
ACUGAGCAAUAUUACGACAG	-0.882 ± 0.091	-0.105 ± 0.12
ACUAAGCAAUAUUACGCAUC	-3.13 ± 0.28	-1.54 ± 0.2
UGAAAGCAAUAUUACGGUCC	-0.844 ± 0.072	-0.196 ± 0.095
AAACAGCAAUAUUACGUAUA	-3 ± 0.14	-1.27 ± 0.12
